# B1: proteolysis-resistant owl monkey TRIMCyp_(K283D,Q287D) (natural protein)
# chain: not shown
# B2: African green monkey TRIM5α (Chlorocebus pygerythrus) (natural protein, UniProt Q5C8U4 1-515, looked up)
# chain: MASGILVNVKEEVTCPICLELLTEPLSLPCGHSLCQACITANHKESMLYKEEERSCPVCRISYQPENIQPNRHVANIVEKLREVKLSPEEGQKVDHCARHGEKLLLFCQEDSKVICWLCERSQEHRGHHTFLMEEVAQEYHVKLQTALEMLRQKQQEAEKLEADIREEKASWKIQIDYDKTNVSADFEQLREILDWEESNELQNLEKEEEDILKSLTKSETEMVQQTQYMRELISDLEHRLQGSMMELLQGVDGIIKRVENMTLKKPKTFHKNQRRVFRAPDLKGMLDMFRELTDVRRYWVDVTLAPNNISHAVIAEDKRQVSYRNPQIMYQSPGSLFGSLTNFSYCTGVPGSQSITSGKLTNFNYCTGVLGSQSITSGKHYWEVDVSKKSAWILGVCAGFQPDATYNIEQNENYQPKYGYWVIGLQEGDKYSVFQDGSSHTPFAPFIVPLSVIICPDRVGVFVDYEACTVSFFNITNHGFLIYKFSQCSFSKPVFPYLNPRKCTVPMTLCSPSS
# notes: also called TRIM5α_(AGMpyg); TRIM5_(AGMpyg)
# B3: owl monkey TRIMCyp (Aotus trivirgatus) (natural protein)
# chain: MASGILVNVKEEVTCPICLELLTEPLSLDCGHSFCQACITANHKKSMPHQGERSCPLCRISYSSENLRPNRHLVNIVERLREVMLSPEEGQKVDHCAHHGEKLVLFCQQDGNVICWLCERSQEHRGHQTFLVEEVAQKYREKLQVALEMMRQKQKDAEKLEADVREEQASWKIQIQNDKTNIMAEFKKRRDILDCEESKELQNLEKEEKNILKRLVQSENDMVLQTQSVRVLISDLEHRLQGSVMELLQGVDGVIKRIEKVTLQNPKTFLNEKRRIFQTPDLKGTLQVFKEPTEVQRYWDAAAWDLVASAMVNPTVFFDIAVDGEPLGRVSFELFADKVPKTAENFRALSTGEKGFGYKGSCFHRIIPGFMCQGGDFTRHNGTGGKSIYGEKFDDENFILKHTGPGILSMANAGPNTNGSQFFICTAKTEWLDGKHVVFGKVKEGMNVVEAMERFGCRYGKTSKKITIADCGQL
# B4: chimpanzee TRIM5α (Pan troglodytes) (natural protein, chimpanzee (Pan troglodytes), UniProt Q5D7J1 1-493, looked up)
# chain: MASGILVNVKEEVTCPICLELLTQPLSLDCGHSFCQACLTANHKKSMLDKGESSCPVCRISYQPENIRPNRHVANIVEKLREVKLSPEGQKVDHCAHHGEKLLLFCQEDGKVICWLCERSQEHRGHHTFLTEEVAREYQVKLQAALEMLRQKQQEAEELEADIREEKASWKTQIQYDKTNVLADFEQLRDILDWEESNELQNLEKEEEDILKSLTKSETEMVQQTQSVRELISDLERRLQGSVMELLQGVDGVIKRMENVTLKKPETFPKNQRRVFRAPDLKGMLEVFRELTDVRRYWVDVTVAPNNISCAVISEDMRQVSSPKPQIIYGARGTRYQTFMNFNYCTGILGSQSITSGKHYWEVDVSKKSAWILGVCAGFQPDAMCNIEKNENYQPKYGYWVIGLEEGVKCSAFQDGSFHTPSAPFIVPLSVIICPDRVGVFLDYEACTVSFFNITNHGSLIYKFSHCSFSQPVFPYLNPRKCGVPMTLCSPSS
# notes: also called TRIM5αcpz
# Target: the molecule itself
# Experiment: SEC; final gel filtration step, HiLoad 16/600 Superdex 200 in 20 mM CHES, 100 nM ZnCl2, 1 mM TCEP, pH 10.0, 4°C; oligomer judged from retention time
row,Protein,stoichiometry N
1,B1,2
2,B2,2
3,B3,2
4,B4,2
